Measurements as given in the NTF2 design screens of Basanta et al. (2020).

Assay: protease stability score; higher = more stable; yeast display proteolysis, trypsin and chymotrypsin;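 note: log10 excess protease needed over predicted unfolded state with 0 meaning unfolded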
Sequence “DEKDVRILEEYVNAWNTNDPDTLNNLADPNARFKIGNKEFQGRDTLDRLAKQLRKEMRVTVHDVHAKDDDGRVDAKVDAVMHYNGKPNRDTFHFDAKVHNGRIRELNVQFDEKRKKKVDS” has a protease stability score of -0.065. For “DEEIVKLVEEQARAEKTNDDKRLNELFDKDAKVDVGDKSYHGTEELHKLVHRTMHRMRFDLRTYRIDHEGDRAVMNYNLVFDINGRPDHYHVIFRAHMHNGRIKHQSVSVDPEQKKRFDS”, the protease stability score was -0.023. “DEQWLNRLNRVFEHNNEEDLIKNMDPNVRVEIGDKRVRGRHKVKEALDRLKEEADHLQLKSVHVQGDKVSATMEMVVNGKHVQMTVTIEFTNGRIKNQRYKATDEKDKKVINDIMG” gave a protease stability score of 0.34. “DEKQALDVAHEAARAVAEGDDQKLREHMDPNATMEYGDKQVHGRENIMRVAKEFRDRADNVEIKSVHLTGNKVNVHVLLTHNGHTQRVRIDAKAHNGRVKSIRLDDK” gave a protease stability score of 1.06. Sequence “DDEQLKKLAQKFADNMQSGNEEEFDRMAPPEVRVQIGDKTYKGRDKVKEMMKRFRTTADHVRIESFEAHNGQITFNVIIQVNGKSHRIRLRIQARNGQVKQFDLNPDDQRKVEK” has a protease stability score of 0.18. In the case of “DHTVLEKAATALKQGDTDKMNKLADENVKMKVGDKEFHGRQQVNTALKRIKEQVDHRSIRSIENRGNRVTIDANVVVNGKHVDVNFILVVHNGRLKMFQIRVTDPQVHRRLSEIMS”, the protease stability score is reported as 0.722. Work on “DETAQNLIKELNRAWNENNENQVAELMDPNAKLQIGNKVLTGRKQRMEEIRSQTHSMRLDYKYEDVKAKNGKVTANLRYVADVNGRPVDVTVSVKADVHNGVIVRLEVRLPPDVEEELKR” yielded a protease stability score of 0.219. With “DEDFWERVESMLRLWKHGNEDEWSKNADPNVRYVYGEKVVTGREQAKHMFRKVKDEIRFTFEFKRVRIQGDTIEAKFEFRADRNGKPRSANATVTIRFEGDKVHDNDVKSQS” the protease stability score was 0.42. “DEENKKQAERLYTALEKNNPEELKKLADPNARVEVGDTTYHGMRKFLRDLAQTLKELRVEVIEIEIDVQGNQVTAHVHVRVEKNGQPDEFVLIFHFELSNGRIKRVRVERHQ” gave a protease stability score of 1.12. “EEENQQIAEDVVDVLRTGDHEKFMHMADPNVKVVIGDKQYRGREDFSKIVKTWKDQMRLHIQIKDVKVEGDEVHVEADYLMKHNGKPVRDTITLVIRFDNGKIKEVQYEVDEDVLRKLES” gave a protease stability score of 1.14. “DENVVKTAKNWFKAVQTGDTQEIHKNADPNARFQIGDKEYEGMEEYDKEQKERFEHMRVDYKDVTIRADGEHLHVKVKAKVNVNGQPHDVTFTIEARVDNGKFKEIVVKFDPDQQDRVEK” showed a protease stability score of 0.338. Sequence “DSEKDKDWLRKLQSAVERNDPDSVMRLLDPNAEANYGDQTLHGREHIRKMFSELLKHADHVEVTDVRAHNGRLQLDVIMTINGRKSRYDLQFQFSNGRVKKVSVHSR” has a protease stability score of 1.26. In the case of “EERVQKMLEDAMRTNDEVELIKSAPPNAKVVVGDKKIKGHEEAHRWAVRFKEQVDHTEIKHLDINGDKVSLDFSIVINGKKIRVVVKVTATNGKVREVHVQATSEDDQEQLKRDIK”, the protease stability score is reported as 0.652. In the case of “DEEEVRELAERFAENLERGDFHKVANQADPNARMQIGDTRYHGREELQRFLKELMERVDHLQIRSVKVRGNHVTIRMHVHYNGKSVDMHMTFHAKNGKIKHVEFNPKDFDKARR”, the protease stability score is reported as 0.813. For “DEELVKRAEDMIKAIQRGDEDRINQMVDPNADVRVGDQRYDGMHEYVTRLKSRQKRMRRSVSVESVTAKNGQVRIDAKMTRNDNGRPERFKHIIIIKAENGEIQVIHVHKSQ”, the protease stability score was -0.078. In the case of “DSHAHNVADEVMRALQENDEDSLRQLLDPNVEFHIGDTTYHGREQVRHWITRLKEQMRVKFDLKDLKVQGDTVHIKLRLEQEHNGQPRQHNVVINVKIDNGRVKKISFQHTK”, the protease stability score is reported as 1.64. “DETVLQVVHRFLKAVETGDPKEVRKNADPNAKAVVGDQTVSGRETLAHQIEREREEMSFEWEKVTNDVQGEHVDVDFTMRMTHNGRPDRSRVRIKYQVHNGKLTYVRVTDDK” gave a protease stability score of -0.149. “DERKSAENFFHTLVKVMETGDEDKARKMFDENADAEVGDTEYHGREQLSKYMMTLVKNIDHIRLDLRDMHIEGDKIDIHADVEYRVNGQRTTNKLTVDVEIDNGRNKAQDIKFK” showed a protease stability score of 0.214. “DEEKRKHAREILKVEETGNPDDLKELFDPNAKFEYGDKTFHGMTDFRQHHERVRKEMHIDIKSVSVSVHNGQAQVDVQYEHEHNGRPDSKRANRTFDIRNGRVQSATQKDDQ” gave a protease stability score of -0.537. “DEKQAKELADEYIKAFEEGDPDKHQELVDKDAQVNYGDKTLHGREEFRKLVEELRRQADHISVHNVDYQGNKVVVHYVVDVNGHKVELSYTVQYHDGRMKQASVSYRSEDLKREQEQ” showed a protease stability score of 0.384. In the case of “DETEEVQKLVHRWRQAMEDGNPDDLRKNMDEDAEMRYGDKSWHGRENIAQNLHKERQRADSISITIEDMDHENGKAVVHLNITFTVNGRKETKRYDLDVEVNGDKLKIKQIQQE”, the protease stability score is reported as 0.247. For “DEEHAHEMLKVVKVLIEGDPDQAHDMVDPNARFKVGDQTFSGRESFRNHVRHTNEESSLHLKSLDAQDHGDKVTIKVEFVRDTNGNPRHMRLEVRARLHNGRVTHAEFEDRK”, the protease stability score was -0.001. Sequence “DEEKYKRLFRKVFEAAIKGDEEKVKKFGKPNVKYEYADKQYEGPEAMKHVVDLAKKVGAEVKTREQEVKGNTAKAKFQYKLGDRTVQTTVEVKYEGDKVKEARVKLTDEVKKILHQG” has a protease stability score of 0.065. “DEEKHAESAIHHIIKVFKENNPDQFRRNADPNVKVNVGEHEVDGRDDLAKYMVDEANRVDHASYEIVHLDVRGDKARARVRVIVKFDGQERKYEYVFVFVEQNGEVVITKVQHQ” gave a protease stability score of 1.1. For “DEEKLDKVMKMVRDALQKGDQEKAQKLVKPDGHFQVGDQELNGYDQVRKYYKKVKDLGAEAHVKKTDVRGNTFRLEYDARLKGVQVTIRLEVRVKDEKVDEARADMTEDYAKHVTKG”, the protease stability score was 0.53. Sequence “DNDAREAARRLLDAWRTGDEDTVRDMADENAKVTVGDKTIQGRDHLVDWIHQHYHEQRVDVKSVHMDAQGDKVDVKLDAVSDRNGQPRRYVEHVKITMKNGKMKSLEMHREG” has a protease stability score of 0.753. With “DEDKQRKTADEIQKVIKQGDEKKAEDLFDENAKLSIGDKFYRGKEDFKRWFRSLRDRIDHFQVKDLEVDGERAEFVVVFHVNGKNVEMVIEIHVHNGKVKHARVNPEDERKLNT” the protease stability score was 1.05. Sequence “DDEKARQQVREFIRAMETGDEDSMVQQLDENAHVHIGDHVWRGREQARNAFKEFVKQFDRIEVKRVEYRNGDVVIDAVANVNGVRVRIIFKIHIHNGRIKNLRIEYRDEEEKKQLDG” has a protease stability score of 1.99. In the case of “DESAVNNLVRLAKAWLRGDPKKIEHLVDKDAKAQIGDKTLHGREDLKDHADELRKDMTVDVKSVTNNNQNGQAVVDVKFEADRNGRPETHTLDAKATAHNGDIVDVKIHQDG”, the protease stability score is reported as -0.304. Sequence “DEDKVRKFQEYIEAYRRGDEQKLLKLMDPNVHVEIGDRRYHGHEDMEKILHKEIREIRVDVKIQSIEVRNGHITAHLVMSVNVNGHPVQMQFTVVIEMTNGKIKSIKYRVSEEQKRRFDS” has a protease stability score of 0.49. For “DEEQLQREANEYNKLRRHGDPDRIVELADPNARAHVGDKRVHGREDMKRMVEEERKHADHITFTDFRVDGDKLEILFVITHNGQSDTRIMTIQWDNGKIKRLEVKNN”, the protease stability score was 0.381. In the case of “DEEHLKRVNETVMDIVKNNDPNQLREMVDPNVKVDVGDQRVHGRDKAAEVVKEWEKHVDRVTIRHVSVHNGRVRVVFQLESNGKTKDVQILFVYENGRIHSMRFTSQ”, the protease stability score is reported as 0.933. Sequence “EEEHAKHLNEVMERGDWERLAELADKDVKIRVGDKEYRGRELLERWNRKLYKKVDEVHIDSVHVRNGRITVNMEVNVNGDKVRAQFRIRIHNGKIKHINIQATSEENEERWQEMLD” has a protease stability score of 1.5. With “DEREARDVQHRINKNDPQSHEDQVDEDVKLQIGDTTWHGREELNDVIRRVRESADHIKYERVEVDGDTVVADVVYTINGKNIKLRLVVHVKNGRIKYMNMTATNPDDLRTLNEIIQ” the protease stability score was 1.25. “DSRAANLFSHAWKQVETGNNHNFRKLLDPNARRKVGDQTIDGREEMTEDNKRKRKEMHRTIETMSFEDHGDKAVFYMQYVVHHNGEPREIRNRVIIKVRGDRIKEVEVRKDG” showed a protease stability score of 0.006. For “EKEVVELAERFIDALQTNNPDQAEENVDENVKFQYGDKSIKGRDTWNRELKKTLRDQRIQFRHVEIRSDGDKAHITAEFQVTHNGQPDKRRYKMTVEVRNGTIQRVTVQQHR”, the protease stability score was 0.17. For “DEEMLEVVKQLLHAYQNGDEEKVKRLLDPNARVQVGDQVVHGRESYANEVRKERDEIRFDVKITSVKVHNGKIDIKADVHVNINGKPVKFDVIIEYKMEGDKIKQINVQMDPSQWKERES”, the protease stability score was 0.913. Work on “DEHIDHMYKEILRLLETGNSEEAQKLLDPNVKVVVGDKRYHGREDYARDMVRRIKEMDVQRDFDHVSVHNGKVDADAKQTTNSNGRPSSNTVRITIVQHNGRIHMIKIDSRQ” yielded a protease stability score of 0.041. Work on “DDREQAQKFMDLFEDAIKDGDPRQAEELAPPDAKARYGDKKLTGMHDIARHFIDEVKRVDHHRVTYKDIKNEGNKFVFTFVYTFKHNGQSDDKQVRVEAENHNGRLLVTSIHDT” yielded a protease stability score of 0.724. For “DTRDDERFKEFLKQIETNDPDKLVRMFDPNARIKVGDNELRGREQIHTFWKHVLDEQRVEYTDVKADFNGDKIEVDIRMVNQTNGEPEESRNKVEVKWHNGRLIDVIFRSDG”, the protease stability score was 0.113. In the case of “DEHAKRVLHEWLRAIQTGDPDKAMRLADKDARIRVGDKVISGREQLHKWVETLKKHIKVQIEDFNIEVHGEELELNIVATLNDNGEPQRSRWVVTVIIRNGEMKSLTQRDDS”, the protease stability score is reported as 0.009. “DDDAQRVLNEFWRHWRRGNEEELKKLVDPNAQFEVGNKTFHGREHYANYLRRVSEEMTFDINIKDMSVEGDQVVIDATIMVQVNGNPISIKVIWRANATNGKIKYLSLQIDEDMVRQQQS” showed a protease stability score of 0.445. Sequence “DEENSRILKELLRAIRRGDEERAKELVDPNAKFQVGNKNVHGRDHWAQELRKEKEKIRFDMHIKHVKVDNGKIKVDLRVQVDVDGRPVTNRVKLTVELHNGRLTHLRVEMDEDQERKLKK” has a protease stability score of 0.366. “DDEEIKRLVKKAAHAFVDNDPDQFIRLLRDDVRARYGDKEVRGKESIKKQLQHWIHRIDHVEVKSFRAHGNSAEAHIVAIINGRTFDVHMDITFDNGRAHTVVFDVRSEEEFKEAMT” showed a protease stability score of 1.49. “EEHVKHIVDQLIKVLQHNDEKLWERLVDPNAEIRVGDKSIRGRERFSEEVRRQKHQARMQWKSVQVDVHGDKAVLHFSAEFQVNGQPADFDVTMHIQVHNGTVKRMFVQVPEKDVQRKTS” showed a protease stability score of 0.459. Sequence “EEKNRKVFEEAMKAFQTNDKDQAERMFDENATVKIGDQEIHGNKQIREHIRTMEEHMRLEIKSIDLKVSNGRVHANITFVEEHNGEPKTLRLHVRAEVDNGTIESMQFNDDG” has a protease stability score of 0.159. Sequence “DEEVRKAYHDAMKAEEKGDEDRIRELFDPNARVQVGDKTYQGREDISHNLAREQKHARYHIKHVDLQVHNGRLTVKQTYDFQHNGQPNSDRDKATIEADGENIKDVEVKQNP” has a protease stability score of -0.27. Work on “EEHLESLVRNLEEAVKKGNPEEMKKNLDKNARMVYGDKRLHGMSDILTEIEKRREHMRLEHEVKSIDNQGNKAKVTARLDVNVNGHPVDVDFIIHIKVHNGHVLEIVYQLPPEAHEKLKT” yielded a protease stability score of -0.278. In the case of “DEKENKKLATELNQNLQTGDPDKLARLADPNARAQYGETTYHGRSQIKTMWETLSRQVDNVELKHMHVQGNEVEVVLTFNVNGKEYELRITASFKNGRLKDLQIDPDEIQRAEK”, the protease stability score is reported as 0.4. With “DEQDLNSVKENLKAIETNNPKRVKELLDKDARAQYGDKEVHGRDEIADQQRKEREDIDIRIDWKRMNIDNGRIHMEFEVQYNFNGKPLTNKVTMRNEAHNGSIKAMFWQLSEDQQRELDS” the protease stability score was -0.374.
